Source: patent US20090175790A1

Molecular target: WT HCN1 (mHCN1) (mouse (mHCN1)) (UniProt O88704)
Assay: cell-based or functional assay

UniProt O88704, sequence (O88704 whole entry): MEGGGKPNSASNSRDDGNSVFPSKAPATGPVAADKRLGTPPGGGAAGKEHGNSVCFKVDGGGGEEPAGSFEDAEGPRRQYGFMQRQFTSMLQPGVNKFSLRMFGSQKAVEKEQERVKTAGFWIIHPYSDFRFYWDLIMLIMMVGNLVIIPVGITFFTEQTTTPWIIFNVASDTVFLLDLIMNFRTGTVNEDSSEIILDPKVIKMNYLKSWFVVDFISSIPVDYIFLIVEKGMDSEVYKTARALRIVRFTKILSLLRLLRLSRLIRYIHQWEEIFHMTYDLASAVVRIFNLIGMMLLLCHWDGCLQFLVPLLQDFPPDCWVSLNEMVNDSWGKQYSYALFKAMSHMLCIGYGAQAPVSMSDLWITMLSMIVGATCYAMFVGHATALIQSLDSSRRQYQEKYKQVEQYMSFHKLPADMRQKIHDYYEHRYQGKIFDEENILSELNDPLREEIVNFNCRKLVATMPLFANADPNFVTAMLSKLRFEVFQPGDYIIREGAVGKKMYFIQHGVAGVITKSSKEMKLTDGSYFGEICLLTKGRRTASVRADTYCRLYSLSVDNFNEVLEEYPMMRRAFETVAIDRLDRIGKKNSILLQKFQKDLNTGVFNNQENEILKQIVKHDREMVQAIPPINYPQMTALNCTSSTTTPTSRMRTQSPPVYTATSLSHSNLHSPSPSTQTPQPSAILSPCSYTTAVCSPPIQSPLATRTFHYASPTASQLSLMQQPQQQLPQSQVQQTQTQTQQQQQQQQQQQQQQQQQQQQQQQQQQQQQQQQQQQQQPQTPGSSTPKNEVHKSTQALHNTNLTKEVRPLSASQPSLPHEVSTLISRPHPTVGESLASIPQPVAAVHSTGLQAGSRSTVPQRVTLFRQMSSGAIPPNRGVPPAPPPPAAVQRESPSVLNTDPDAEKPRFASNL

HCN1-AAA (mHCN1 with the triple mutation GYG365-367AAA) (from UniProt O88704 1-910)
current reduction, WTHCN1:HCN1-AAA cRNA ratio 1:1 (total 25 ng), Xenopus oocytes (% current reduction): 91.7 | current reduction, WTHCN1:HCN1-AAA cRNA ratio 1:2 (total 25 ng), Xenopus oocytes (% current reduction): 97.9 | current reduction, WTHCN1:HCN1-AAA cRNA ratio 2:1 (total 25 ng), Xenopus oocytes (% current reduction): 78.7 | current reduction, WTHCN1:HCN1-AAA cRNA ratio 3:1 (total 25 ng), Xenopus oocytes (% current reduction): 68.3 | current reduction, WTHCN1:HCN1-AAA cRNA ratio 4:1 (total 25 ng), Xenopus oocytes (% current reduction): 55.2 | whole-cell current at -140 mV in Xenopus oocytes, co-injection of 50 nL WT HCN1 and 50 nL HCN1-AAA cRNA against WT HCN1 alone (current reduction): 85.2%
